Results reported in the supplement of paper PMC12042874.
± gives the uncertainty stated by the source.

Assay: amyloid nucleation score (Sup35N fusion, yeast selection) (log enrichment); library NNK1; higher = more nucleation; inactive = no reads after selection
Summary of the method: (§1)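 Growth for 7 days at 30°C on medium lacking adenine and uracil followed a 24-hour induction with 100 μM copper sulfate of psi-negative yeast expressing peptides of 20 random codons fused to Sup35N. Input and output plasmid inserts were sequenced with Illumina, and sequences with under 100 input reads were excluded. Nucleation score is the DiMSum log enrichment of output over input reads, centred on the mode score of non-aggregating sequences.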

Q: With AVCVEGQLANSGHRGTGNGN as the substance, how does the amyloid nucleation score read?
A: 0.257 ± 0.48

Q: For AVELI, which amyloid nucleation score is on record?
A: -0.436 ± 0.34

Q: With AVEVLGPCRNLRVWSNLDLG as the substance, how does the amyloid nucleation score read?
A: -0.072 ± 0.74

Q: With AVLWTHQYFYYYIGLAF as the substance, how does the amyloid nucleation score read?
A: -0.267 ± 0.68

Q: Which amyloid nucleation score does the source give for AVLYLSQFGLNRKRGYTA here?
A: 0.582 ± 0.56

Q: For AVMPHCSCTRNQRFRLVSMH, which amyloid nucleation score is on record?
A: 0.707 ± 0.85

Q: Which amyloid nucleation score does the source give for AVSLRWCTGINGADKSCAYQ here?
A: 1.19 ± 0.43

Q: Which amyloid nucleation score does the source give for AVVMTLIVYALGYT here?
A: 1.27 ± 0.3

Q: With AVYDLCD as the substance, how does the amyloid nucleation score read?
A: 0.816 ± 0.74

Q: For AWAKFCCSD, which amyloid nucleation score is on record?
A: -0.012 ± 1.1

Q: Which amyloid nucleation score does the source give for AWDVLMHM here?
A: 0.248 ± 0.49

Q: For AWFSISTRRIAIAWVILPCN, which amyloid nucleation score is on record?
A: -0.398 ± 0.4

Q: Which amyloid nucleation score does the source give for AWIRGQTVSCLYYAEGLELG here?
A: -0.448 ± 0.71

Q: For AWRDTDVASSVICG, which amyloid nucleation score is on record?
A: 0.932 ± 0.97

Q: For AWYWAMAIMRVSIKVWPLLL, which amyloid nucleation score is on record?
A: -0.713 ± 0.7

Q: Which amyloid nucleation score does the source give for AYFIYVMYG here?
A: -1.11 ± 1.1

Q: For AYGLNARIHTATGECLLGYA, which amyloid nucleation score is on record?
A: -0.143 ± 0.24

Q: With AYINLTPHGPRVCRFNWLAS as the substance, how does the amyloid nucleation score read?
A: -0.094 ± 0.7

Q: Which amyloid nucleation score does the source give for AYINSSDSRSDMSRNWY here?
A: 0.47 ± 1.1

Q: Which amyloid nucleation score does the source give for AYKDGVTTLDLGCTGCFCYA here?
A: 4.7 ± 0.072

Q: With AYMWLGAINICLWYWSLGR as the substance, how does the amyloid nucleation score read?
A: 3.02 ± 0.21

Q: For AYSLLMDYGFNHLFIRRFSR, which amyloid nucleation score is on record?
A: -0.067 ± 0.42

Q: Which amyloid nucleation score does the source give for AYTCDV here?
A: 0.03 ± 0.29

Q: Which amyloid nucleation score does the source give for AYVASFTSIRCRAHHAPLSK here?
A: -0.366 ± 0.3

Q: With CAACSSQLYCEWFMNALLGM as the substance, how does the amyloid nucleation score read?
A: -0.513 ± 0.44

Q: For CAIFFTASLCVCRLSAACEQ, which amyloid nucleation score is on record?
A: 1.75 ± 0.43

Q: With CAVLLGSIVHMLFAYE as the substance, how does the amyloid nucleation score read?
A: 0.132 ± 0.61

Q: For CAVQQYRNRRGNM, which amyloid nucleation score is on record?
A: 0.152 ± 0.65

Q: For CCAISMFFELHNLHVTVMGS, which amyloid nucleation score is on record?
A: 5.54 ± 0.057

Q: Which amyloid nucleation score does the source give for CCLIHS here?
A: 1.38 ± 0.5

Q: For CCLLDWSLDNGYNRQLRKET, which amyloid nucleation score is on record?
A: 0.219 ± 0.32

Q: With CCLTWAPTRDPFCLVTGVCR as the substance, how does the amyloid nucleation score read?
A: 0.193 ± 1.1

Q: For CCQYSWSNVMSVRKLSAWLH, which amyloid nucleation score is on record?
A: 0.04 ± 0.34

Q: For CCVNDFPTISPLSPLKRFDR, which amyloid nucleation score is on record?
A: -0.302 ± 0.54

Q: For CDRFWMELG, which amyloid nucleation score is on record?
A: -0.267 ± 0.4

Q: For CDSFVSFMPNFNFFR, which amyloid nucleation score is on record?
A: 5.03 ± 0.056

Q: Which amyloid nucleation score does the source give for CDSYELSQTAQRNNSTLRQS here?
A: -0.359 ± 1.9

Q: With CDVLELFKNTVGSFGGIVVS as the substance, how does the amyloid nucleation score read?
A: 0.204 ± 0.79

Q: Which amyloid nucleation score does the source give for CDWNLSNGGYGDHARCSGSA here?
A: 5.13 ± 0.069

Q: With CDYAVGHNVDFYYLTSNPSG as the substance, how does the amyloid nucleation score read?
A: -0.301 ± 0.53

Q: With CDYVKRLDNLLGYPLWWGRW as the substance, how does the amyloid nucleation score read?
A: 0.22 ± 0.34

Q: For CEGCDMGWLRSTNRQLMAYL, which amyloid nucleation score is on record?
A: inactive

Q: With CELGTIDHSEKMLMVNWCAG as the substance, how does the amyloid nucleation score read?
A: 0.967 ± 0.34

Q: Which amyloid nucleation score does the source give for CESCAACMRHYRWLGFQSYI here?
A: -1.5 ± 2.4

Q: For CFGCF, which amyloid nucleation score is on record?
A: 2.23 ± 0.17

Q: Which amyloid nucleation score does the source give for CFGKSSVWHRYRFYIGNRAI here?
A: -0.613 ± 0.75

Q: For CFIDQYVVTNCSLLTYFM, which amyloid nucleation score is on record?
A: 0.145 ± 0.88

Q: Which amyloid nucleation score does the source give for CFIFFPSKIHPLICTKTRAK here?
A: 0.446 ± 0.34

Q: For CFRELPYSLYNC, which amyloid nucleation score is on record?
A: -0.666 ± 0.42

Q: With CFSLWY as the substance, how does the amyloid nucleation score read?
A: 0.089 ± 0.29

Q: Which amyloid nucleation score does the source give for CGIVFCSSFMDIFGPFDQTH here?
A: 8.373 ± 0.056

Q: With CGKESRVRVKYCVFGIKKWQ as the substance, how does the amyloid nucleation score read?
A: -0.518 ± 0.53

Q: For CGLLWSCSKLH, which amyloid nucleation score is on record?
A: 1.56 ± 0.42

Q: Which amyloid nucleation score does the source give for CGSRLGEMRAVTGPHLTPMR here?
A: -0.233 ± 1.1

Q: With CGTIKLSPFWWSVEDHACWM as the substance, how does the amyloid nucleation score read?
A: 0.828 ± 0.57

Q: With CHFSYSI as the substance, how does the amyloid nucleation score read?
A: 0.558 ± 1.1

Q: For CHGCIGTNSEGLCTLYEDYT, which amyloid nucleation score is on record?
A: -0.594 ± 0.26

Q: Which amyloid nucleation score does the source give for CHIWPDVLNVCAILGDLRKR here?
A: 1.18 ± 0.16

Q: For CHWLNVYSCFSYVVTYDWSN, which amyloid nucleation score is on record?
A: 6.044 ± 0.056

Q: With CHYLVLD as the substance, how does the amyloid nucleation score read?
A: -0.186 ± 0.74

Q: Which amyloid nucleation score does the source give for CHYVKPVFTICQVPTFIESI here?
A: 1.43 ± 0.51

Q: Which amyloid nucleation score does the source give for CISIACSAD here?
A: 0.342 ± 0.73

Q: With CIYWALGRAMRLPSGTGARG as the substance, how does the amyloid nucleation score read?
A: 0.099 ± 0.95

Q: For CKCWFM, which amyloid nucleation score is on record?
A: 0.307 ± 0.52

Q: With CKFIFRKIVVGFCFDQQ as the substance, how does the amyloid nucleation score read?
A: 3.67 ± 0.1

Q: With CKRNQTTVSVVGWFI as the substance, how does the amyloid nucleation score read?
A: -0.227 ± 1.2

Q: With CKVDRFIRCGVGYLSG as the substance, how does the amyloid nucleation score read?
A: 0.039 ± 0.28

Q: Which amyloid nucleation score does the source give for CLIESIWKLVVSNGSKYISY here?
A: -0.181 ± 0.18

Q: For CLSELGFAVPTSWTICILCT, which amyloid nucleation score is on record?
A: 0.656 ± 0.59

Q: With CLTGGYPNRKLNLTMMWCHW as the substance, how does the amyloid nucleation score read?
A: inactive

Q: Which amyloid nucleation score does the source give for CLVPAQGCYYGYLLTLMVER here?
A: -0.264 ± 0.52

Q: Which amyloid nucleation score does the source give for CLVVYHSRKAW here?
A: 2.64 ± 0.16

Q: Which amyloid nucleation score does the source give for CLYARLSFASGYCGLAMRCV here?
A: 0.477 ± 0.93

Q: With CMAFVFKTCFVFRCNVGKCA as the substance, how does the amyloid nucleation score read?
A: 0.527 ± 0.28

Q: With CMPCSDFGSLWVAMDMNCFR as the substance, how does the amyloid nucleation score read?
A: 4.1 ± 0.085

Q: Which amyloid nucleation score does the source give for CMSSAALSRLHM here?
A: -0.605 ± 1.1

Q: For CMYTEACNWWGKYNCVGRQL, which amyloid nucleation score is on record?
A: 0.235 ± 0.32

Assay: amyloid nucleation score (Sup35N fusion, yeast selection) (log enrichment); library NNK2; higher = more nucleation; inactive = no reads after selection
Summary of the method: as §1

Q: With YYINVDQESGSWMRTSVKGA as the substance, how does the amyloid nucleation score read?
A: 0.207 ± 0.41

Q: Which amyloid nucleation score does the source give for YYKFTVCWMYYLYQKSRTLL here?
A: -1.15 ± 0.78

Q: With YYLSNPRGVHISIYREHNMS as the substance, how does the amyloid nucleation score read?
A: 6.392 ± 0.043

Q: With YYLVV as the substance, how does the amyloid nucleation score read?
A: -0.614 ± 0.56

Q: With YYMKFEAILKDQWSTVYN as the substance, how does the amyloid nucleation score read?
A: inactive

Q: For YYMLVYWDV, which amyloid nucleation score is on record?
A: 0.56 ± 0.44

Q: For YYSISGISFWFSK, which amyloid nucleation score is on record?
A: 8.381 ± 0.06

Q: For YYVDVLESISSGMFLYSQLV, which amyloid nucleation score is on record?
A: -1.95 ± 0.54

Q: For YYYVTCSILPLFYFEKGLAL, which amyloid nucleation score is on record?
A: 5.711 ± 0.037
